According to the supplement of paper PMC9170038:

System: MS2 coat protein
Experiment: apparent KD of MS2 coat protein; designed switch direction (-1 OFF switch, 1 ON switch): -1; higher = weaker reporter binding
In short: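 On Illumina chips, designed RNA switches with common flanks were made by stalled E. coli RNA polymerase. Titrations with SNAP-549-labelled MS2 coat protein, doubling from 0.7 or 1.5 nM to 3 µM, were done with no input, with 200 uM small-molecule ligand, or with an oligonucleotide input. Apparent KD is the median per design over clusters, from curve fits of normalised cluster fluorescence.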

[1] = input ligand: microRNA oligo, concentration not stated
[2] = Eterna round: R95, input ligand: microRNA oligo, concentration not stated
[3] = Eterna round: R95, input ligand: FMN 200 uM
[4] = Eterna round: R95, input ligand: none

Row | Sequence | apparent KD of MS2 coat protein (input ligand: FMN 200 uM) [nM] | apparent KD of MS2 coat protein [1] [nM] | apparent KD of MS2 coat protein (input ligand: none) [nM] | apparent KD of MS2 coat protein [2] [nM] | apparent KD of MS2 coat protein [3] [nM] | apparent KD of MS2 coat protein [4] [nM]
1 | GUGUGGCCUGUAGGAUAUGGUUCCGUUUCGGUUCCAGAAGGACACGAGGAUACAUGAGGAUCACCCAUGUGCUCGUCACUGUGC [salish99_ExNG1_r04_404] (Eterna round: R96, puzzle: Exclusion NG 1) | 13.2 | 11.5 | 18.2 |  |  | 
2 | GUACAUAUAGGAUAUACAUGAGGAUCACCCAUGUAAAUCGUUAGUUGGGAUUCUAAAAGUAGAAGGGUGGUGCG [Eternabot (L2) Solution 30] (Eterna round: R97, puzzle: Exclusion 3) | 27.6 |  | 27.4 |  |  | 
3 | AUUAGUAUCUAGGAUAUCUAGUACAUAGUAUCUAGAGAAGGAGAUACAUGAGGAUCACCCAUGUUCUGUGUUCU [Exclusion 6 - 1:d] (puzzle: Exclusion 6) |  |  |  | 20.3 |  | 
4 | GAGCCAUCGUGAGAUGGCUCAAUUACAUGAGGAUCACCCAUGUAGGAUAUCGAUUGCUUUGCAGUCGAGAAGGACAUGUUUAAU [JL ENG3 3.00] (Eterna round: R96, puzzle: Exclusion NG 3) | 67.4 | 25.8 | 30.3 |  |  | 
5 | CUUUUGUGAGGAUAUCAGUAGUAAAAAAAUAAAAUUACUACUGAGAAGGCACAUGAGGAUCACCCAUGUUCCUC [EX4 344: Super Stable 44] (Eterna round: R96, puzzle: Exclusion 4) | 343 | 36.3 | 42.4 |  |  | 
6 | ACUAGGCGAGGAUAUACAUGCUUAACACAGCGAAAGCUGUGACAUGAGGAUCACCCAUGUAGAAGGCGCAAAUA [Enlaedondi] (puzzle: Exclusion 2) |  |  |  | 43.2 |  | 
7 | CGAGCUUUUUGCUCGUCUUACAUGAGGAUCACCCAUGUCAAACAAACAAACAAACGAAAGUUUGUUUGUUUGUUUGA [Mod of sellena 2] (Eterna round: R97, puzzle: Sensor, turn-off variant 1) | 29.4 |  | 30 |  |  | 
8 | AUAUAGUCAGGAUAUCGAAGUGUGUGUUGGUUUGUAAUUUACGAGAAGGGACAUGAGGAUCACCCAUGUAGGAA [JR_Exclusion4)Sub002] (puzzle: Exclusion 4) |  |  |  | 35.8 |  | 
9 | AAUCCACAUGAGGAUCACCCAUGUGAGGAUAUGAUACUAUGUACUUCGGUACAUAGUAUCAGAAGGCACGGAUC [Ex1-3: 53] (puzzle: Exclusion 1) |  |  |  | 29.9 |  | 
10 | CUCAUGUGAGGAUAUAGUGCGUCUUCUAUUAUUAUUGAGUACUAGAAGGCACAUGAGGAUCACCCAUGUAGCAC [Ex4 - 3 - 45] (Eterna round: R96, puzzle: Exclusion 4) |  | 29.2 | 57.6 |  |  | 
11 | CGUGAGCGCGUCAGGAUAUGGCGGCGGCGGCGGCGCCAGAAGGGACAUGAGGAUCACCCAUGUUGCGUGCGUGG [Prefect Broudrd's mod of Exclusion] (Eterna round: R97, puzzle: Brourd's mod of Exclusion 4) | 73 |  | 39.3 |  |  | 
12 | UUUAACGAUGAGGAUAUAUGAUAUCAAAGCAUCAUAGAAGGCAUCACAUGAGGAUCACCCAUGUGAUCUUCUUG [Mat - Exclusion 6 - JL Mod - D28] (Eterna round: R97, puzzle: Exclusion 6) | 94 |  | 29.4 |  |  | 
13 | CAACCUCACGAGGAUAUCAAUGCUAGUUGGCGUUGAGAAGGCGUAACAUGAGGAUCACCCAUGUGGUGGCGUAU [Eternabot (Original) Solution 26] (Eterna round: R97, puzzle: Exclusion 6) | 1020 |  | 921 |  |  | 
14 | AUUGUUUAUGUAGGAUAUGCCUGGCGUGCCUUCGCAGAAGGACAUGAGGAUCACCCAUGUAUUGCGGUCUGCGUUCAGAUCGCG [salish99_ExNG1_r4_026] (Eterna round: R96, puzzle: Exclusion NG 1) | 65.3 | 34.3 | 47.5 |  |  | 
15 | AAGAUGUUAGGAUAUCGAAGGUUGUGGCAGGCGGGAAUUUGCGAGAAGGAACAUGAGGAUCACCCAUGUGAAAU [JR_Exclu4_Sub043] (puzzle: Exclusion 4) |  |  |  | 19.7 |  | 
16 | UAAUAACAAGCAGGAUCCUACAUGAGGAUCACCCAUGUGCUCGUCUUAUAAAGUACUAUCACGAAAGUGAUAGUACU [Mat - Sensor v3 - turn-off var 1 - Eli Mod - D73] (puzzle: Sensor v3, turn-off variant 1) |  |  |  | 71.9 | 208 | 250
17 | AUAAAUAAUGCAGGAUAUGUCGGCGAAAGGCCGGCAGAAGGGCAGCGUGGAUGUAUCCUGAACAUGAGGAUCACCCAUGUGAAA [Ederisbi] (Eterna round: R96, puzzle: Exclusion NG 1) | 209 | 168 | 347 |  |  | 
18 | CAAAAGCUAGGAUAUUGAGGUGGGCACAUGAGGAUCACCCAUGUGGACCUCGAGCCUACGCAAGAAGGAGUAAAAU [Rioren] (puzzle: Exclusion 5) |  |  |  | 13.1 | 18 | 17
19 | AUGAGCAGACGGAGAUCCAACAUGAGGAUCACCCAUGUCUCAAAAGCUUUUUGCUCAUCUUAUUGUACCUUGGUGCA [Mat - Sensor v3 - turn-off var 1 - JL Mod - D17] (puzzle: Sensor v3, turn-off variant 1) |  |  |  | 16.5 | 172 | 213
20 | GUGACUGAUGUCAGGAUAUCCGGUGCUAAAGUACAGGAGAAGGGACAUGAGGAUCACCCAUGUAACUUAGCCAG [BmEX4 B.7] (Eterna round: R97, puzzle: Brourd's mod of Exclusion 4) | 23.2 |  | 15.4 |  |  | 
21 | ACAUGAGGAUCACCCAUGUCGAGUACAUGAGGAUCACCCAUGUAGGAUAUGGUUCGCUUUGCGUGCUAGAAGGAUAUGUGUUGC [salish99_ExNG3_r04_509] (Eterna round: R96, puzzle: Exclusion NG 3) | 351 | 199 | 241 |  |  | 
22 | AUGUGCACGCUGCGGUCCUACAUGAGGAUCACCCAUGUGGUCUGGUGGCGUGGGUCACCGGACUUGGCUCGUCUUGA [salish99_S_TOV1_R5_055] (Eterna round: R97, puzzle: Sensor, turn-off variant 1) | 56 |  | 51.9 |  |  | 
23 | UUUUUAUAUGAAGGAUAUACUUAACAUGAGGAUCACCCAUGUGGUGUUGUGAGUGAGUGAGUUUAGUAGAAGGUCAAUGAUUCU [JMF's solution 61] (Eterna round: R96, puzzle: Exclusion NG 2) | 864 | 299 | 419 |  |  | 
24 | AGUUCUAACACGUUGGUGUUAGUACCAUAAGCUUGUGAUACAUGAGGAUCACCCAUGUCCUCAUAAGCUCGUCUUAU [salish99_TOv2_r3_1001] (Eterna round: R96, puzzle: Sensor v3, turn-off variant 2) | 25.2 | 563 | 27.3 |  |  | 
25 | UUUUACAGGCUUAGAUCCUACAUGAGGAUCACCCAUGUGGUGGCGUGUCGUGAGACAUGCCACUAAGCUCGUCUUGU [JL TOV1 3.73] (Eterna round: R97, puzzle: Sensor, turn-off variant 1) | 98.3 |  | 103 |  |  | 
26 | ACAAAGGAUACAGGAUAUCGCGUACAAGUGCAGCGAGAAGGGUAUUCUAUGCGCUAUCCGACAUGAGGAUCACCCAUGUGGUCC [Eternabot solution 47] (Eterna round: R96, puzzle: Exclusion NG 1) | 417 | 851 | 366 |  |  | 
27 | GUAUAGCGAGGAUAUACAUGAGGAUCACCCAUGUGAUCCUUAGGCUGUACAAGCCAAUGUAGAAGGCGCAAAUU [jl-ex3.4.59 ViennaUCT mod] (Eterna round: R97, puzzle: Exclusion 3) | 75.7 |  | 147 |  |  | 
28 | GUCAGCUCGUCAGGAUAUAUUAACAUGAGGAUCACCCAUGUAAGAUCAGGCUUCGGCCAAUGUUAAUAGAAGGGACGAGCUGAC [ENG2/12-B1] (Eterna round: R96, puzzle: Exclusion NG 2) | 132 | 745 | 438 |  |  | 
29 | CUAAUAUAUCAGGAUAUGAUUAUAUGUGUUAGAUCAGAAGGGAUAACAUGAGGAUCACCCAUGUUGUGGAGUGA [JR_Ex6_Sub035] (Eterna round: R97, puzzle: Exclusion 6) | 67.3 |  | 64.2 |  |  | 
30 | AAAACUUUGAGAGGAUAUCUGAAAGGAAGUGUAAGAGAAGGCUCAGAGGACAUGAGGAUCACCCAUGUACGUCAUGGGCUCCGA [PowerStrip EXNG 1.15] (Eterna round: R96, puzzle: Exclusion NG 1) | 49.8 | 39.6 | 111 |  |  | 
